{"source": "patent US20030082740A1", "about": "“Histidine proline rich glycoprotein (HPRG) as an anti-angiogenic and anti-tumor agent” (priority 2001, published 2003)", "key": {"HUVEC": {"tested_on": "HUVEC", "assay": "Endothelial cell tube formation on Matrigel", "type": "cell-based, human", "conditions": "for Inhibits Angiogenesis (Matrigel® assay): tube formation, concentration not stated", "method": "Endothelial cells, for example, human umbilical vein endothelial cells (HUVEC) or human microvascular endothelial cells (HMVEC) which can be prepared or obtained commercially, are mixed at a concentration of 2×10^5 cells/mL with fibrinogen (5 mg/mL in phosphate buffered saline (PBS) in a 1:1 (v/v) ratio. Thrombin is added (5 units/ mL final concentration) and the mixture is immediately transferred to a 24-well plate (0.5 mL per well). The fibrin gel is allowed to form and then VEGF and bFGF are added to the wells (each at 5 ng/mL final concentration) along with the test compound. The cells are incubated at 37° C. in 5% CO2 for 4 days at which time the cells in each well are counted and classified as either rounded, elongated with no branches, elongated with one branch, or elongated with 2 or more branches. Results are expressed as the average of 5 different wells for each concentration of compound. Typically, in the presence of angiogenic inhibitors, cells remain either rounded or form undifferentiated tubes (e.g. 0 or 1 branch).\nThis assay is recognized in the art to be predictive of angiogenic (or anti-angiogenic) efficacy in vivo (Min, H Y et al., Cancer Res. 56: 2428-2433,1996). In an alternate assay, endothelial cell tube formation is observed when endothelial cells are cultured on Matrigel® (Schnaper et al., J. Cell. Physiol. 165:107-118 1995). Endothelial cells (1×10^4 cells/well) are transferred onto Matrigel®-coated 24-well plates, and tube formation is quantitated after 48 hrs. Inhibitors are tested by adding them either at the same time as the endothelial cells or at various time points thereafter. Tube formation can also be stimulated by adding (a) angiogenic growth factors such as bFGF or VEGF, (b) differentiation stimulating agents (e.g.,. PMA) or (c) a combination of these.\nHUVEC were seeded onto Matrigel®-coated 96 well plates. Photomicrographs showing results are in FIGS. 4A and 4B.\nEndothelial cell tube formation on Matrigel® was stimulated by incubation for 24 hr with FGF-2 (20 ng/ml ), VEGF (20 ng/ml ) and PMA (40 ng/ml ) for 24 hours (FIG. 4A).\nMatrigel® tube formation assays in vitro were carried out as described above."}, "[1]": {"tested_on": "angiogenesis stimulated by FGF-2", "assay": "Matrigel plug model, angiogenesis stimulated by FGF-2", "type": "in vivo, mice", "conditions": "0.25 μM in plug; 7 days", "method": "This assay is performed essentially as described by Passaniti et al. (Lab Invest. 67:519-528 (1992). Ice-cold Matrigel® (e.g., 500 μL) (Collaborative Biomedical Products, Inc., Bedford, Mass.) is mixed with heparin (e.g., 50 μg/ml), FGF-2 (e.g., 400 ng/ml) and the compound to be tested. In some assays, bFGF may be substituted with tumor cells as the angiogenic stimulus. The Matrigel® mixture is injected subcutaneously into 4-8 week-old athymic nude mice at sites near the abdominal midline, preferably 3 injections per mouse. The injected Matrigel® forms a palpable solid gel. Injection sites are chosen such that each animal receives a positive control plug (such as FGF-2+ heparin), a negative control plug (e.g., buffer+heparin) and a plug that includes the compound being tested for its effect on angiogenesis, e.g., (FGF-2+heparin+compound). […] Hemoglobin (Hb) levels are determined using Drabkin's solution (e.g., obtained from Sigma) according to the manufacturers' instructions. […] The amount of fluorescence in the dispersed plug, determined fluorimetrically, also serves as a measure of angiogenesis in the plug. […]\nIn this study, ice-cold Matrigel® (500 μL) was mixed with heparin (50 μg/ml), FGF-2 (400 ng/ml) and the compound to be tested. […] Hemoglobin levels were determined using Drabkin's solution (from Sigma) according to the manufacturers' instructions."}, "caspase-3": {"tested_on": "caspase-3", "assay": "Caspase-3 activity in bFGF-stimulated HUVEC", "type": "cell-based, human", "conditions": "rHPRG at 10 and 100 nM, H/P at similar concentrations, relative to HKa", "method": "The ability of the compounds of the invention to promote apoptosis of EC's may be determined by measuring activation of caspase-3. Type I collagen (gelatin) is used to coat a P100 plate and 5×10^5 ECs are seeded in EGM containing 10% FBS. After 24 hours (at 37° C. in 5% CO2) the medium is replaced by EGM containing 2% FBS, 10 ng/ml bFGF and the desired test compound. The cells are harvested after 6 hours, cell lysates prepared in 1% Triton and assayed using the EnzChek® Caspase-3 Assay Kit #1 (Molecular Probes) according to the manufactures' instructions.\nIn order to evaluate whether the observed anti-proliferative activity of HPRG was due to an induction of apoptosis, the activity of caspase-3 (an enzyme that is central to several pro-apoptotic pathways) was measured. HUVEC were grown in 100 mm^2 petri dishes in the presence of bFGF or bFGF+HPRG. Cells were extracted and caspase-3 activity measured using a fluorescent substrate."}, "[2]": {"tested_on": "CAM of an 8-day old chick embryo", "assay": "Chick chorioallantoic membrane (CAM) angiogenesis assay", "type": "in vivo", "conditions": "inhibitor at 20 μg/ml with bFGF 30 μg/ml; counted 4 days after implantation", "method": "This assay is performed essentially as described by Nguyen et al. (Microvascular Res. 47:31-40 (1994)). A mesh containing either angiogenic factors (bFGF) or tumor cells plus inhibitors is placed onto the CAM of an 8-day old chick embryo and the CAM observed for 3-9 days after implantation of the sample. Angiogenesis is quantitated by determining the percentage of squares in the mesh which contain blood vessels.\nThis assay was performed essentially as described by Nguyen et al. (Microvascular Res. 47:31-40 (1994)). […] Angiogenesis was quantitated by counting the number of microvessels that contacted the filter. In this experiment, microvessel were counted 4 days after implantation of the filter."}, "[3]": {"tested_on": "Lewis lung adenocarcinoma 3LL cells", "assay": "Matrigel plug model, 3LL tumor cell-mediated angiogenesis", "type": "in vivo, mouse", "conditions": "concentration not given; FIG. 7 legend", "source_text": "In this assay, tumor cells, for example 1-5×10^6 cells of the 3LL Lewis lung carcinoma or the rat prostate cell line MatLyLu, are mixed with Matrigel® and then injected into the flank of a mouse following the protocol described in Sec. B., above. A mass of tumor cells and a powerful angiogenic response can be observed in the plugs after about 5 to 7 days. The anti-tumor and anti-angiogenic action of a compound in an actual tumor environment can be evaluated by including it in the plug. Measurement is then made of tumor weight, Hb levels or fluorescence levels (of a dextran-fluorophore conjugate injected prior to sacrifice). To measure Hb or fluorescence, the plugs are first homogenize with a tissue homogenizer.\nThe methods used in this study were essentially the same as described in Example VI except that 3LL tumor cells were used to stimulate angiogenesis instead of bFGF. Lewis lung adenocarcinoma 3LL cells (10^6 cells/plug) were mixed with cold Matrigel prior to injection. After seven days, the animals are sacrificed by cervical dislocation and the Matrigel® plugs recovered and processed as above."}, "[4]": {"tested_on": "human umbilical vein endothelial cell (HUVEC)", "assay": "bFGF-stimulated HUVEC proliferation (MTS)", "type": "cell-based", "conditions": "48 hours", "method": "The ability of the compounds of the invention to inhibit the proliferation of EC's may be determined in a 96-well format. Type I collagen (gelatin) is used to coat the wells of the plate (0.1-1 mg/mL in PBS, 0.1 mL per well for 30 minutes at room temperature). After washing the plate (3× w/PBS), 3-6,000 cells are plated per well and allowed to attach for 4 hrs (37° C./5% CO2) in Endothelial Growth Medium (EGM; Clonetics) or M199 media containing 0.1-2% FBS. The media and any unattached cells are removed at the end of 4 hrs and fresh media containing bFGF (1-10 ng/mL) or VEGF (1-10 ng/mL) is added to each well. Compounds to be tested are added last and the plate is allowed to incubate (37° C./5% CO2) for 24-48 hrs. MTS (Promega) is added to each well and allowed to incubate from 1-4 hrs. The absorbance at 490 nm, which is proportional to the cell number, is then measured to determine the differences in proliferation between control wells and those containing test compounds.\nbFGF is used to stimulate human umbilical vein endothelial cell (HUVEC) proliferation. Cells are incubated in the presence of bFGF alone or with added inhibitors of proliferation for 48 hours in a 96 well plate. Proliferation is then measured using the colorimetric reagent, MTS. […]"}}, "note": "“Also recorded” adds a separate entry of the source.", "data": [{"molecule": "APPHG [ATN246]", "values": [{"measurement": "Inhibits Angiogenesis (Matrigel® assay)", "setting": "HUVEC", "result": "No"}, {"measurement": "Inhibits Angiogenesis (Matrigel® assay)", "setting": "HUVEC; listed as APPHG", "result": "no effect on neovascularization"}]}, {"molecule": "His-His-Pro-His-Gly (HHPHG; printed: His-His-Pro-His-Gly) [ATN230]", "values": [{"measurement": "Inhibits Angiogenesis (Matrigel® assay)", "setting": "HUVEC", "result": "Yes"}, {"measurement": "Inhibits Angiogenesis (Matrigel® assay)", "setting": "HUVEC; listed as HHPHG", "result": "active"}]}, {"molecule": "His-Pro-Pro-His-Gly (HPPHG; printed: His-Pro-Pro-His-Gly) [ATN228]", "values": [{"measurement": "Inhibits Angiogenesis (Matrigel® assay)", "setting": "HUVEC", "result": "Yes"}, {"measurement": "Inhibits Angiogenesis (Matrigel® assay)", "setting": "HUVEC; listed as HPPHG", "result": "active"}]}, {"molecule": "HPRG: Histidine proline rich glycoprotein; rabbit HPRG has SEQ ID NO:3; applicants' designation ATN-234 (protein, UniProt P04196 19-525, looked up) Histidine-rich glycoprotein: VSPTDCSAVEPEAEKALDLINKRRRDGYLFQLLRIADAHLDRVENTTVYYLVLDVQESDCSVLSRKYWNDCEPPDSRRPSEIVIGQCKVIATRHSHESQDLRVIDFNCTTSSVSSALANTKDSPVLIDFFEDTERYRKQANKALEKYKEENDDFASFRVDRIERVARVRGGEGTGYFVDFSVRNCPRHHFPRHPNVFGFCRADLFYDVEALDLESPKNLVINCEVFDPQEHENINGVPPHLGHPFHWGGHERSSTTKPPFKPHGSRDHHHPHKPHEHGPPPPPDERDHSHGPPLPQGPPPLLPMSCSSCQHATFGTNGAQRHSHNNNSSDLHPHKHHSHEQHPHGHHPHAHHPHEHDTHRQHPHGHHPHGHHPHGHHPHGHHPHGHHPHCHDFQDYGPCDPPPHNQGHCCHGHGPPPGHLRRRGPGKGPRPFHCRQIGSVYRLPPLRKGEVLPLPEANFPSFPLPHHKHPLKPDNQPFPQSVSESCPGKFKSGFPQVSMFFTHTFPK", "values": [{"measurement": "inhibition of angiogenesis (hemoglobin in plug)", "setting": "[1]", "result": "completely inhibited angiogenesis; also recorded: inhibit angiogenesis"}, {"measurement": "induction of caspase-3 activity", "setting": "caspase-3", "result": "induction of caspase-3"}, {"measurement": "neovessel formation (blood vessel number)", "setting": "[2]", "result": "capable of inhibiting neovessel formation; also recorded: inhibit angiogenesis"}, {"measurement": "inhibition of 3LL tumor-mediated angiogenesis", "setting": "[3]", "result": "inhibit 3LL tumor-mediated angiogenesis"}, {"measurement": "endothelial cell tube formation on Matrigel", "setting": "HUVEC; 500 nM, stimulated with FGF-2, VEGF and PMA for 24 hours", "result": "almost completely disrupted tube formation; also recorded: inhibition of EC tube formation"}, {"measurement": "inhibition of bFGF-stimulated proliferation of HUVEC", "setting": "[4]; 100 nM, FIG. 2A", "result": "almost complete"}, {"measurement": "inhibition of bFGF-stimulated proliferation of HUVEC", "setting": "[4]; concentration not given, FIGS. 2A, 2B", "result": "inhibit proliferation"}]}]}
